Results taken from US20240368282A1 (BIOSCEPTRE AUST, published 2024).

Target: T1, dysfunctional P2X7 receptor (human, UniProt Q99572 1-595)
T1 construct: Endogenous on cancer cell lines (MOLM-13, JeKo-1); also called nfP2X7; nfP2X7 receptor
T1 sequence: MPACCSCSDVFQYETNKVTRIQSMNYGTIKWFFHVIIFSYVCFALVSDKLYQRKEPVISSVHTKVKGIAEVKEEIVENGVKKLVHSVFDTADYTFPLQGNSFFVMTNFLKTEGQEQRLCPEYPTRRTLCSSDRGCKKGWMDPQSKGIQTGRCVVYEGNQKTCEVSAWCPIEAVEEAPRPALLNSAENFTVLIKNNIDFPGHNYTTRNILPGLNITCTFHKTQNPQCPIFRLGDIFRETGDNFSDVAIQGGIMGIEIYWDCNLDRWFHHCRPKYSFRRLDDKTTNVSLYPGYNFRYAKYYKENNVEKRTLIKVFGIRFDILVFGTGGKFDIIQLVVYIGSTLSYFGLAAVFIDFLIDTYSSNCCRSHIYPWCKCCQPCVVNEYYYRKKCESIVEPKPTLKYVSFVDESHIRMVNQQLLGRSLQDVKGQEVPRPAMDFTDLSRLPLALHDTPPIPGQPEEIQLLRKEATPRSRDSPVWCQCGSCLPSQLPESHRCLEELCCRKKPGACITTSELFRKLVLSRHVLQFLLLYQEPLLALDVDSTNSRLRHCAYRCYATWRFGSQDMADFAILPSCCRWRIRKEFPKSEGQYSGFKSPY
Assay: flow cytometry, anti-HIS-FITC, MOLM-13 cells
Protocol: Indirect staining of artificial proteins on MOLM-13 cells via anti-HIS staining. […] Histogram overlay of HIS-FITC positivity on MOLM-13. […] HIS-ab was used according to manufacturer with 1 μl per test, target cells were incubated with 50 μl of supernatant from Lenti-X™ 293T cells for 10 min at room temperature. Supernatant harvested 48 h after transfection.

B1: Orchestration molecule OR2-3 (nfP2X7), IgG1 format (antibody, V domains shown)
VH: EVQLLESGGGLVQPGGSLRLSCAASGFTFRNHDMGWVRQAPGKGLEWVSAISGSGGSTYYANSVKGRFTISRDNSKNTLYLQMNSLRAEDTAVYYCAEPKPMDTEFDYRSPGTLVTVSS
VL: DIQMTQSPSSLSASVGDRVTITCRASQYIYDYLNWYQQKPGKAPKLLIYAASYLQSGVPSRFSGSGSGTDFTLTISSLQPEDFATYYCQQYHHPSTFGQGTKVEIKR
notes: Tested as supernatant; also called OR2 paired to OR3
- binding result: binds
